# From paper PMC10998826 (EJNMMI Research, 2024)
# Where two headings read alike, the source gives them in different places.
# How the values were obtained:
# Bone marrow dosimetry = format: in vivo, humans; settings: for Bone marrow dose: median
# Method: Bone marrow and kidney dosimetry was performed as described before.
# CCK2R positive tumors = settings: athymic mouse model; cited from earlier work
# Description: About 90% of medullary thyroid carcinomas (MTCs) express the transmembrane G protein–coupled cholecystokinin 2 receptor (CCK2R) at a high density, making CCK2R an interesting target for peptide receptor radionuclide therapy (PRRT). Recently, a new generation of radiolabeled minigastrin derivatives, targeting CCK2R, with improved and promising properties was introduced. First clinical trials explore the potential of such compounds for imaging and PRRT of CCK2R expressing tumors, in particular for MTC [3–5]. However, the reported tumor radiation doses were lower than those usuall ...
# [1] = SPECT/CT based dosimetry of tumors; format: in vivo, humans; settings: human, iv, total radioactivity
# Method: (§1) Patients were allowed a light breakfast at the day of each infusion. […] Entresto® was given at an oral dose of 100 mg, containing 48.6 mg sacubitril and 51.4 mg valsartan 2 h before the start of one of the two infusions. Vital signs were recorded, and a 12-lead electrocardiogram was obtained before and after each injection. Adverse events were recorded and graded according to Common Terminology Criteria for Adverse Events (CTCAE) version 4.03.
# (§2) Planar whole-body scintigraphy and quantitative SPECT/CT acquisitions of neck/thorax/abdomen/pelvis were acquired with a hybrid SPECT/CT system (Siemens Intevo, Siemens Erlangen, Germany) at 1, 4, 24 and 72 h post injection (p.i.).
# (§3) Calibration of the SPECT/CT camera was performed with a National Institute of Standards and Technology traceable selenium-75 point source (uncertainty in activity 3%) every four weeks. Acquisitions (medium-energy low-penetration collimator) were performed in step and shoot mode using 20 s/view, 64 views/head using a non-circular orbit with a 180° detector configuration in a 128 × 128 matrix. The photo-peak window was set to 208 keV ± 10% (187.2–228.8 keV). Except for the first patient, the quantitative tomographic images (isotropic voxel size 5.08 mm^3) were reconstructed with xSPECT Quant™ (Siemens Healthcare, Siemens Erlangen, Germany) which uses the ordered subset conjugate gradient method (OSCGM) to calculate the quantitative activity distribution. The number of iterations (12, 24 or 60) with one subset and 3D-Gaussian post-filter with full width at half maximum (FWHM) of 16.0 mm and 20.8 mm were selected automatically by the reconstruction algorithm, based on the count statistic. Triple energy window scatter correction, CT-based attenuation correction, and resolution recovery were enabled for all image reconstructions. As the xSPECT Quant™ algorithm was not available at the site initially, images of the first patient were quantitatively reconstructed (isotropic voxel size of 3.9 mm^3) using the OSCGM algorithm with 24 iterations, one subset and a 3D-Gaussian post filter of 10.0 mm FWHM. For these reconstructions, both photo-peak energy windows at 113 keV ± 10% and 208 keV ± 10% were used. All other settings remained as stated above.
# (§4) At first a VOI with volume V0 and activity A0 enclosing the tumor and its surrounding background was drawn. Subsequently, the threshold was increased until a new VOI with volume Vspect and activity Aspect separating the tumor activity from background was found. The activity in the tumor at the fourth time point can then be estimated by A4=Aspect-A0-Aspect/V0-VspectVspect-VCT, where the second term is the background correction, with the tumor volume VCT determined in the contrast enhanced CT. Spill in and out of activity from the tumor volume into the background was not considered.
# (§5) Time activity curves (TAC) of the tumors were determined using the mean activity of 3 ml threshold VOIs, drawn in the 1, 4, 24 and 72 h p.i. images. A linear model yt=α+λe·t was fitted to the log-transformed data points to estimate the effective half-life Te=ln2/λe . The activity at the first acquisition is then given by A1=A4·e^λe·Δt where Δt is the time difference between the first and fourth acquisition. The total number of disintegrations can then be estimated by N=A1t1/2+∫t1e^-λet^′dt^′ where t1 is the time of the first acquisition.
# (§6) The average energy deposition E per disintegration in soft tissue voxels of 3.9 mm^3 and 5.08^3 mm^3 with density ρ=1g/cm^3 was calculated with FLUKA, resulting in the mean tumor dose given by D=N·E/ρ·VCT .
# (§7) In case the data was not suitable for single exponential fit, N was calculated numerically using trapezoidal integration until the fourth time point and after with analytical integration of the exponential decay using the half-live of Lutetium-177.
# (§8) The energy distribution in ICRP soft tissue of a Lu-177 point source was calculated with the MC-Simulation toolkit FLUKA version 4.1.0.
# [2] = test system: medullary thyroid carcinoma tumors; test: SPECT/CT based dosimetry of tumors; format: in vivo, humans; settings: for Mean tumor dose: SPECT/CT dosimetry
# Method: as §1, §2, §3, §4, §5, §6, §7, §8
# Dosimetry of stomach = format: in vivo, humans; settings: for Stomach dose: gastric wall
# Method: as §2
# A conservative segmentation approach was adopted for gastric dosimetry to ensure that the VOI included all activity distributed in the gastric wall. TACs were analyzed in the same way as for the tumor dosimetry with a mono-exponential model. The average absorbed dose D in the gastric wall was then calculated by using D=N·E/m , where N is the total number of disintegrations, E the average energy deposited in tissue and m = 0.15 kg is the mass of the stomach wall.
# [3] = Entresto premedication, eight patients
compound,measurement,setting,value
"CSCC[C@H](NC(=O)[C@H](Cc1c[nH]c2ccccc12)NC(=O)CNC(=O)[C@H](Cc1ccc(O)cc1)NC(=O)[C@H](C)NC(=O)[C@@H](CCC(=O)O)NC(=O)[C@@H](CCC(=O)O)NC(=O)[C@@H](CCC(=O)O)NC(=O)[C@@H](CCC(=O)O)NC(=O)[C@@H](CCC(=O)O)NC(=O)[C@@H](CCC(=O)O)NC(=O)CN1CCN(CC(=O)O)CCN(CC(=O)O)CCN(CC(=O)O)CC1)C(=O)N[C@@H](CC(=O)O)C(=O)N[C@@H](Cc1ccccc1)C(N)=O [[^177Lu]Lu-PP-F11N, [^177Lu]Lu-DOTA-(DGlu)6-Ala-Tyr-Gly-Trp-Met-Asp-Phe-NH2, metal not drawn]",Median absorbed dose of bone marrow after premedication compared to without,Bone marrow dosimetry; [3],1.4 fold
same,Bone marrow dose,Bone marrow dosimetry; with Entresto premedication,0.05 Gy/GBq
same,Bone marrow dose,Bone marrow dosimetry; without Entresto premedication,0.03 Gy/GBq
same,Increase in tumor uptake on co-injection of phosphoramidon,CCK2R positive tumors,not significant
same,Increase in tumor uptake on co-injection of thiorphan,CCK2R positive tumors,only to a minor extent
same,tissue to tissue ratio,"[1]; tumor / bone marrow, 1.08 GBq, without Entresto premedication, patient 4, 2nd tumor, read-out: Tumor-to-bone marrow dose ratio",1.8
same,tissue to tissue ratio,"[1]; tumor / bone marrow, with Entresto premedication, patient 4, 2nd tumor, read-out: Tumor-to-bone marrow dose ratio",1.4
same,tissue to tissue ratio,"[1]; tumor / kidney, 1.08 GBq, without Entresto premedication, patient 4, 2nd tumor, read-out: Tumor-to-kidney dose ratio",1
same,tissue to tissue ratio,"[1]; tumor / kidney, with Entresto premedication, patient 4, 2nd tumor, read-out: Tumor-to-kidney dose ratio",0.6
same,tissue to tissue ratio,"[1]; tumor / stomach, 1.08 GBq, without Entresto premedication, patient 4, 2nd tumor, read-out: Tumor-to-stomach dose ratio",0.2
same,tissue to tissue ratio,"[1]; tumor / stomach, with Entresto premedication, patient 4, 2nd tumor, read-out: Tumor-to-stomach dose ratio",0.1
same,tissue to tissue ratio,"[1]; tumor and bone marrow, 1.08 GBq, without Entresto premedication, patient 7, 2nd tumor, read-out: Tumor-to-bone marrow dose ratio",15.7
same,tissue to tissue ratio,"[1]; tumor and bone marrow, with Entresto premedication, patient 7, 2nd tumor, read-out: Tumor-to-bone marrow dose ratio",30.3
same,tissue to tissue ratio,"[1]; tumor and kidney, 1.08 GBq, without Entresto premedication, median, read-out: Tumor-to-kidney dose ratio",8.3
same,tissue to tissue ratio,"[1]; tumor and kidney, with Entresto premedication, median, read-out: Tumor-to-kidney dose ratio",7.8
same,tissue to tissue ratio,"[1]; tumor and kidney, with Entresto premedication, patient 7, 2nd tumor, read-out: Tumor-to-kidney dose ratio",11.2
same,tissue to tissue ratio,"[1]; tumor and stomach, 1.08 GBq, without Entresto premedication, median, read-out: Tumor-to-stomach dose ratio",1.5
same,tissue to tissue ratio,"[1]; tumor and stomach, with Entresto premedication, median, read-out: Tumor-to-stomach dose ratio",1.1
same,tissue to tissue ratio,"[1]; tumor and stomach, with Entresto premedication, patient 7, 2nd tumor, read-out: Tumor-to-stomach dose ratio",1.3
same,Mean tumor dose,"[2]; with Entresto premedication, median of n = 6 tumor lesions",0.74 Gy/GBq
same,Mean tumor dose,"[2]; with Entresto premedication, patient 4, 2nd tumor",0.07 Gy/GBq
same,Mean tumor dose,"[2]; without Entresto premedication, median of n = 6 tumor lesions",0.28 Gy/GBq
same,Mean tumor dose,"[2]; without Entresto premedication, patient 4, 2nd tumor",0.05 Gy/GBq
same,tissue to tissue ratio,"[2]; human, tumor and bone marrow, iv, total radioactivity, without Entresto premedication, median, read-out: Tumor-to-bone marrow dose ratio",9.2
same,Median absorbed dose of stomach after premedication compared to without,Dosimetry of stomach; [3],2.1 fold
same,Stomach dose,"Dosimetry of stomach; with Entresto premedication, median",0.5 Gy/GBq
same,Stomach dose,"Dosimetry of stomach; without Entresto premedication, median",0.2 Gy/GBq
same,Stomach dose,"Dosimetry of stomach; without Entresto premedication, patient 4",0.23 Gy/GBq
same,Stomach dose,"Dosimetry of stomach; without Entresto premedication, patient 7",0.17 Gy/GBq
